Data published in article PMC8864007 (2022).
One block for each binder: values may come before it.

Columns and labels:
HER2-Fc protein [1] = target: T1, HER2-Fc protein (human, UniProt P04626 23-652); experiment: SPR
HER2-Fc protein [2] = target: T1, HER2-Fc protein; experiment: ELISA
murine HER2 = target: T2, murine HER2 (murine, UniProt P70424 23-1256); experiment: ELISA
T2 chain: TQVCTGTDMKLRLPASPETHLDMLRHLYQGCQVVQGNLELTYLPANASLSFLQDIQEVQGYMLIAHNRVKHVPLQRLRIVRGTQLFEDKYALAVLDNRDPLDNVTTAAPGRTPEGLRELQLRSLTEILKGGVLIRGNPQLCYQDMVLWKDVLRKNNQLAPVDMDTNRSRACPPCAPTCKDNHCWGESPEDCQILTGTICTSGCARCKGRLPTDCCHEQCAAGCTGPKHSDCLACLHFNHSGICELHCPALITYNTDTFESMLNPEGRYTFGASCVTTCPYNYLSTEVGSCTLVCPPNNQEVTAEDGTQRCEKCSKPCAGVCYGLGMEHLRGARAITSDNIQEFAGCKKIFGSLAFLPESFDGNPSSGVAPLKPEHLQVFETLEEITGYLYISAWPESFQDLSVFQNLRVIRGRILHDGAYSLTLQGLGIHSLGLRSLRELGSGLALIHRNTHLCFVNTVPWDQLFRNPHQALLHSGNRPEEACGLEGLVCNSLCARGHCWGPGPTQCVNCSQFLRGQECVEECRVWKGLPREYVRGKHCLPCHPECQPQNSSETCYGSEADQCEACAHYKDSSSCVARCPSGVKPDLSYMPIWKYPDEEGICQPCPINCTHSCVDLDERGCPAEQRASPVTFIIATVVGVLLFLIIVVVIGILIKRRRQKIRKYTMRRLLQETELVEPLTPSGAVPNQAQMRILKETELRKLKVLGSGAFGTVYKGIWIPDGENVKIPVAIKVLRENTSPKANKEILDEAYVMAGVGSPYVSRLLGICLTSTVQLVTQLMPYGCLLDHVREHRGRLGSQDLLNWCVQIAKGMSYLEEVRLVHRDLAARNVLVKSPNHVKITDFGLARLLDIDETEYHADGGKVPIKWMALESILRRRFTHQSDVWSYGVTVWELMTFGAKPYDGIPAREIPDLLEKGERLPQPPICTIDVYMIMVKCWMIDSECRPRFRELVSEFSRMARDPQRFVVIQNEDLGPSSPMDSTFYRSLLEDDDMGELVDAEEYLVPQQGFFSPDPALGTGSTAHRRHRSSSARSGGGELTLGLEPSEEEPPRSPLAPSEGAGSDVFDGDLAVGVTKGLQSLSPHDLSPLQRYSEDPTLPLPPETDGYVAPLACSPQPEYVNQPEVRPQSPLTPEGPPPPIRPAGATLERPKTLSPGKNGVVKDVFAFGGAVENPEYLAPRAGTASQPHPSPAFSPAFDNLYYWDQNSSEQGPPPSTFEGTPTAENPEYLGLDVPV

Cynomolgus HER2-Fc = experiment: ELISA
Rhesus HER2-Fc = experiment: ELISA
Human HER4-Fc = experiment: ELISA
Human HER3-Fc = experiment: ELISA
Human IgG Fc = experiment: ELISA
Canine HER2-Fc = experiment: ELISA
Rat HER2-Fc = experiment: ELISA
Human HER2-His6 = experiment: ELISA
Human EGFR-Fc = experiment: ELISA

koff (HER2-Fc protein [1]): 0.000718 s⁻¹ | EC50 (HER2-Fc protein [2]): 0.77 nM | EC50 (murine HER2): > 10 µM | EC50 (Cynomolgus HER2-Fc): 1.19 nM | EC50 (Rhesus HER2-Fc): 1.18 nM | EC50 (Human HER4-Fc): > 10 µM | EC50 (Human HER3-Fc): > 10 µM | EC50 (Human IgG Fc): > 10 µM | EC50 (Canine HER2-Fc): 1.09 nM | EC50 (Rat HER2-Fc): > 10 µM | EC50 (Human HER2-His6): 0.69 nM | EC50 (Human EGFR-Fc): > 10 µM
B1: VHH_1028 (VHH)
VHH: EVQLVESGGGLVQAGGSLRLSCAASGITFSINTMGWYRQAPGKQRELVALISSIGDTYYADSVRGRFTISRDNAKNTVYLQMNSLKPEDTAVYYCKRFRTAAQGTDYWGQGTQVTVSS

koff (HER2-Fc protein [1]): 0.00071 s⁻¹
B2: iso-SGMIB-VHH_1028 (VHH)
VHH: B1 VHH
modifications: one iso-SGMIB (non-radioactive) conjugated, mono-substituted; site not stated
